No end group written: not given here.
Columns and labels:
Dpy-30 [1] = biological target: T1, Dpy-30 (Homo sapiens, UniProt Q9C005); test: Ni-NTA pulldown of GST-tagged RSP3 peptides with His-tagged human Dpy-30 protein; assay type: binding; design: made in house; host or cells: E. coli BL21(DE3), co-expressed with the GST-RSP3 peptides; settings: full-length human His-Dpy-30 co-expressed with GST-RSP3 peptide
Description: (§1) Based on the phenotypes of RSP3 transgenic strains (FIG. 4), an in vitro approach was taken to test that RSP3269-316 contains a Dpy-30 domain binding site. RIIa-binding AHs are 14-18-a.a. long. Some of AHs are clearly comprised of ΦΦXX repeats in which the first two residues are hydrophobic residues (Φ) positioned to interact with complementary residues at the binding grooves of the RIIa domain (Burns-Hamuro et al., 2003; Kinderman et al., 2006; Sarma et al., 2010), whereas for the other RIIa-binding AHs the repeats are not as evident (Gold et al., 2006; Gaillard et al., 2001). Typical ΦΦXX repeats were noted within the Dpy-30 binding fragment in BIG1 at the trans-Golgi network but were not tested yet (Xia et al., 2010). For RSP3269-316, typical and degenerate ΦΦXX repeats are present throughout this region, thus the precise Dpy-30 binding site was determined objectively by Ni-NTA pulldown. As a control, the His-tagged RIIa domain from RSP7 was co-expressed with the GST-tagged RSP396-180 that harbors AHR at a.a.#161-178 (Gaillard et al., 2001; FIG. 3) and both polypeptides were co-purified by Ni-NTA (FIG. 7A). Various Dpy-30 domain containing RSP2 and RSP23 polypeptides were tested but were not compatible for this assay due to poor expression or precipitation propensity. Therefore we used the His-tagged human Dpy-30 protein for Ni-NTA pulldown instead. As expected, both GST-RSP3245-316 and GST-RSP3269-316 were co-purified with His-Dpy-30 by Ni-NTA (FIGS. 7B and 7C). In contrast, the GST control was not co-purified (FIG. 7D).
The experiments were further conducted on smaller segments within a.a.#269-316. GST-RSP3280-316 and GST-RSP3280-308, but not GST-RSP3280-306, were also pulled down by His-Dpy-30 (FIG. 7E, left panel). […] To ensure that the co-purification occurs through the Dpy-30 domain rather than its flanking sequence, the same experiment was conducted with the Dpy-30 domain only (Dpy-3045-99, Wang et al., 2009). The results from the experiments using Dpy-30 domain alone or full-length Dpy-30 protein were similar (FIG. 7E, right panel). Based on the similar dimensions of the RIIa and Dpy-30 domains (FIG. 1), we tested if the Dpy-30 binding peptide is centered on the 18-a.a. helix at the a.a.#291-308 by mutating V300 in the middle of the region into P, a strategy used to study AHR (Gaillard et al., 2001; Carr et al., 1992). […] RSP3291-308.
For Ni-NTA (Qiagen) affinity co-purification, GST-tagged RSP3 constructs and His-tagged HDpy-30 constructs were co-transformed into BL21(DE3) cells. The recombinant proteins were induced using 1 mM IPTG overnight at 16° C. Following induction, the cell pellet from a 5-ml culture was resuspended in 750 μl lysis buffer and sonicated using Branson digital Sonifier (Emerson Industrial Automation). The sonicated mixtures were centrifuged at 4° C., 12,000 rpm for 25 min. The supernatant was incubated with 100 μl Ni-NTA for 1 hour at room temperature. The matrix was subsequently washed thrice and elution was carried out as instructed by the manufacturer.

RIIa domain from RSP7 = test: Ni-NTA pulldown with His-tagged RIIa domain from RSP7; assay type: binding, Chlamydomonas; settings: co-expressed in bacteria
Description: as §1
Based on the structural similarity, we tested for the cross-recognition of His-Dpy-30 and AHR (GST-RSP3g); and RSP7's RIIa and AHD (GST-RSP3280-308) by the described Ni-NTA pulldown assay. […] Thus Dpy-30 that has a deep pocket from an additional α-helix recognizes both AHR and AHD, whereas RSP7's RIIa, as PKA's RII, only binds RSP3's AHR(Gaillard et al., 2001). […]

Dpy-30 D/D (a.a. #49-99) = biological target: T2, Dpy-30 D/D (a.a. #49-99) (Homo sapiens, UniProt Q9C005); test: Ni-NTA pulldown of GST-hAsh2 peptides with His-Dpy-30 D/D; assay type: binding; settings: His-Dpy-30 D/D a.a. #49-99 co-expressed
T2 construct: His-Dpy-30 D/D (a.a. #49-99) was co-expressed with GST-hAsh2593-623; made in house; host or cells: E. coli BL21(DE3)
T2 sequence (Q9C005 49-99): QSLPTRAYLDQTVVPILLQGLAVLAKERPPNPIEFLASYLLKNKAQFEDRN
Description: To differentiate if the interaction is via the Dpy-30 domain or the N-terminal fragment, His-Dpy-30 D/D (a.a. #49-99) was co-expressed with GST-hAsh2593-623 (FIG. 11C). To define the N-terminal end of Dpy-30 D/D binding site in hAsh2, W599 in the first potential ΦΦXX motif was mutated into P to disrupt helicity, an approach to abolish D/D-binding (Carr et al., 1982; Burns-Hamuro et al., 2003). […] Thus, the site that directly binds Dpy-30 D/D resides within hAsh2600-617 that is after W599 and contains four ΦΦXX-like motifs, even though an acidic residue occupies a supposedly hydrophobic position in the last motif, VETE (SEQ ID NO:35). The affinity may be further enhanced by adjacent sequences (Burns-Hamuro et al., 2003; Banky et al., 2003).
(§2) All expression constructs were transformed or co-transformed into BL21(DE3) cells. The colonies were selected based on the antibiotic-resistant gene in each plasmid. The cultures were induced with 1 mM IPTG overnight at 18° C. The cell pellet from a 5-ml culture was resuspended in 750-μl lysis buffer supplemented with Complete Mini EDTA-free protease inhibitor cocktail tablets (Roche) and the suspension was sonicated on ice using Branson digital Sonifier until clarified (Emerson Industrial Automation). The sonicated mixtures were centrifuged at 4° C., 12,000 rpm for 25 min. The supernatant or combinations of supernatants as indicated were incubated with ˜100 μl Ni-NTA (Qiagen or Clontech) or Glutathione Sepharose 4B (Amersham Biosciences) for 1 hour at room temperature. The matrix was subsequently washed as instructed by manufacturers, unless indicated otherwise.
(§3) Bacterial extract, flow through and eluate in 1× Laemmli samples buffer were boiled for 5 min. In general, 10 μl samples were loaded in each lane in 4-20% precast acrylamide gels (Bio-Rad or DGEL Electrosystem, Canada) or 14% manually cast gels.

Dpy-30 [2] = biological target: T1, Dpy-30; test: Ni-NTA pulldown of GST-hAsh2 peptides with His-Dpy-30; assay type: binding; design: Dpy-30 fragments, full length or a.a.#49-99, were amplified using purchased IMAGE cDNA clone #4081996 as a template; made in house; host or cells: E. coli BL21(DE3); key to co-purified with Dpy-30: “+” or “−” indicates if the peptides were or were not evidently co-purified with Dpy-30; “+” or “−” indicates if the peptides were or were not evidently co-purified with Dpy-30; settings: GST-fused hAsh2 peptides, Ni-NTA pulldown, Coomassie-stained SDS-PAGE
Description: To test this, we performed pull down assays for His-Dpy-30 and GST-hAsh2593-623. The human Ash2 fragment contains a helix with two typical and three atypical ΦΦXX motifs. The hAsh2 DNA was fused downstream to GST DNA by PCR and the product was cloned into an expression vector. Three clones—#9 and #14 with the expected in-frame fusion and #6 with an out-of-frame fusion—were expressed in bacteria. Their extract was mixed with equal volume of bacterial extract with His-Dpy-30; and the mixture was subjected to Ni-NTA purification. […] Thus hAsh2593-623 interacts with Dpy-30 specifically.
Table 3 illustrates the protein sequences of hAsh2's C-terminal region (hAsh2593-623) and its variants, where “+” or “−” indicates if the peptides were or were not evidently co-purified with Dpy-30. The shorter fusion protein GST-hAsh2593-617 that terminated right after the last possible ΦΦXX-like motif, VETE (SEQ ID NO:35), in the helix was also co-purified with His-Dpy-30 (FIG. 11B, arrow and double arrowheads), no matter expressed separately or co-expressed. Both polypeptides were depleted in the flow through of Ni-NTA matrix (Post in FIG. 11B) and retained in the eluate.
as §2, §3

T1 sequence (Q9C005 whole entry, the tested form may be a part): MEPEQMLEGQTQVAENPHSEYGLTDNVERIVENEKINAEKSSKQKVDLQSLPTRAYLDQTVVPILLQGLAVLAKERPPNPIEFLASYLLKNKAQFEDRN

Substance | co-purification / pulldown with His-Dpy-30 (Dpy-30 [1]) | co-purification / pulldown with His-RIIa from RSP7 (RIIa domain from RSP7) | co-purification with the Dpy-30 domain (Dpy-30 D/D (a.a. #49-99)) | co-purified with Dpy-30 (Dpy-30 [2])
GST-RSP3280-306: GST-tagged Chlamydomonas RSP3 fragment a.a. 280-306 (PWLKEQAIGYLARGVVARRVVDKLVED; also: GST tag) | not |  |  | 
GST-RSP3280-308: GST-tagged RSP3 fragment a.a. 280-308, the Dpy-30-binding amphipathic helix AHD (PWLKEQAIGYLARGVVARRVVDKLVEDAA; also: GST-tagged (fusion)) | pulled down | did not significantly pull down |  | 
PMSDMGWGAVVEHTLADVLYH------GRRS (PMSDMGWGAVVEHTLADVLYHGRRS; also: GST fusion) [Δ614-619, GST-hAsh2593-623 with VETEVD deleted] |  |  | abolished the co-purification | −
GST-RSP3280-316: GST-tagged Chlamydomonas RSP3 fragment a.a. 280-316 (PWLKEQAIGYLARGVVARRVVDKLVEDAAAALAANRS; also: GST tag) | pulled down |  |  | 
PMSDMGPGAVVEHTLADVLYHVETEVDGRRS [W500P] |  |  | still co-purified | −
PMSDMGWGAVVEHTLAD----------GRRS (PMSDMGWGAVVEHTLADGRRS; also: GST fusion) [Δ610-619, GST-hAsh2593-623 with a.a. #610-619 deleted] |  |  | abolished the co-purification | −
